Paper PMC6028617, “ADP-Dependent Kinases From the Archaeal Order Methanosarcinales Adapt to Salt by a Non-canonical Evolutionarily Conserved Strategy” (Frontiers in Microbiology, 2018)

B1: MmazPFK/GK (Methanosarcina mazei Go1) (protein)
chain: MDMEEWEQRHNEAFYDAKEALPYLDGMFVAYNSNIDAIRHLDEEALTKLIGFFDEAEIQERVAVYPREIADPLDFIARLLIAMREGKAAEVPTYTEEIHTWLKEHLGFDYARMGGQAGIISNLLARLDLKKVVAYIPWLSAEQAEYFEDNGNILHPKVENGEVVLKTPAEAFNPGMGSKVNWIFEFSKDLKVSCAGSTFKVPRDNRLIISSRPKWIRLDMDRAIYDQLETIFPVDGAMLSGYQMIKEEYEDGSTYKDYVEHSVEVINKLKSLNPDLRIHVELTSIQNRVIRKAILTEIVARHVHSLGLDTVEVANALNVLGYEELSYSVIRKGENGIMSLYQGAVQLMKDLKLERVHVHSLGFYICILAKGHPLTLKEHRDALLFSSVLAASRALHGKIEDLNEAETGLDVPVSAQGLEDLETFKLYCTGRKLCSPDEFEYGYIYGSDHDAILIPSKVVDRPKATVGIGDTISAGAFAAMLARMKQIKSGK
notes: de novo codon-optimized gene in pET-15b, N-terminal poly-His tag, E. coli C41; heat step 50 C, Ni-NTA, HiTrap-Q

Tests used:
AncMsPFK/GK = molecular target: T1, AncMsPFK/GK (synthetic construct, UniProt Z9Y5W3ZEF0); assay: X-ray crystal structure, […] Å; format: binding; conditions: Mg2+ in active site; Ni2+ at three surface sites; crystals pH 4.5
T1 construct: heat step 80 C, Ni-Sepharose
T1 sequence (Z9Y5W3ZEF0 22-511): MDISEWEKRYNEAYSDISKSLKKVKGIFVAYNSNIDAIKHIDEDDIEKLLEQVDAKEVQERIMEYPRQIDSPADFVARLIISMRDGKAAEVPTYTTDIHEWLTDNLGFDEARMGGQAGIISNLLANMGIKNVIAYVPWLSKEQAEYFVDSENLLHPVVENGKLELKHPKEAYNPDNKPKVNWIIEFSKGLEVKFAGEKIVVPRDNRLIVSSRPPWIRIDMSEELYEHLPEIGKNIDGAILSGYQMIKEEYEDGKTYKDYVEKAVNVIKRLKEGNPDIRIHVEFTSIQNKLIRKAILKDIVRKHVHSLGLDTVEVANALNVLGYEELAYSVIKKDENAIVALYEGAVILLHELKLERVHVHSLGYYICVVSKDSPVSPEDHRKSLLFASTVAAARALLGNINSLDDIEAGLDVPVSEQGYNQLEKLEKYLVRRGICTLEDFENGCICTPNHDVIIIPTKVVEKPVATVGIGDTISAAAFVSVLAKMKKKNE

purified protein = substrate: Nc1ncnc2c1ncn2[C@@H]1O[C@H](COP(=O)(O)OP(=O)(O)O)[C@@H](O)[C@H]1O; assay: purified protein; format: biochemical, Methanosarcina mazei; conditions: PFK activity, saturating fructose-6P, 25 mM PIPES pH 6.5, 40 C, as Mg-ADP

Molecule | X-ray crystal structure, 2.86 Å (AncMsPFK/GK) | Km (purified protein) | kcat (purified protein) | kcat/Km (purified protein)
Nc1ncnc2c1ncn2[C@@H]1O[C@H](COP(=O)(O)OP(=O)(O)O)[C@@H](O)[C@H]1O [ADP] | crystals for the ancMsPFK/GK in complex with ADP, which was solved by molecular replacement | – | – | –
B1 | – | 72 ± 9 µM | 6.1 ± 0.3 s⁻¹ | 84500 M⁻¹ s⁻¹
